T1: human EphA1 (Homo sapiens, UniProt P21709)
T1 construct: a protein of the extracellular region of each human Eph receptor fused with the SEAP protein and the His tag; made in house; host or cells: Expi293F cells (culture supernatant)
T1 sequence (P21709 26-547 limits assumed): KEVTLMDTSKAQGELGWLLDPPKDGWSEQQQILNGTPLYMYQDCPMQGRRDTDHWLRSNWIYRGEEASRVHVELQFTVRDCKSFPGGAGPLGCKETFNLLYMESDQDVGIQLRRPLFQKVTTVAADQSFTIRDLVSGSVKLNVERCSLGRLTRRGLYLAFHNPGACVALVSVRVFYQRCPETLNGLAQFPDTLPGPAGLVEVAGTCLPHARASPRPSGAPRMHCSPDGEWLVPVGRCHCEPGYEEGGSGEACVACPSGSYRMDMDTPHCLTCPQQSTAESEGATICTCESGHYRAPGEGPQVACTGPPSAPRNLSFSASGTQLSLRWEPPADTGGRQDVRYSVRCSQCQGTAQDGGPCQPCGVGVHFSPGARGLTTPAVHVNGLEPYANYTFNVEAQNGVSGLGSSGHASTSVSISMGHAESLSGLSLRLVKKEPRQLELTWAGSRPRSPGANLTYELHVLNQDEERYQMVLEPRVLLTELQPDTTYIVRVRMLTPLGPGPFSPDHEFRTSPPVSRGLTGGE

T2: human EphB4 (Homo sapiens, UniProt P54760)
T2 construct: a protein of the extracellular region of each human Eph receptor fused with the SEAP protein and the His tag; made in house; host or cells: Expi293F cells
T2 sequence (P54760 16-539 limits assumed): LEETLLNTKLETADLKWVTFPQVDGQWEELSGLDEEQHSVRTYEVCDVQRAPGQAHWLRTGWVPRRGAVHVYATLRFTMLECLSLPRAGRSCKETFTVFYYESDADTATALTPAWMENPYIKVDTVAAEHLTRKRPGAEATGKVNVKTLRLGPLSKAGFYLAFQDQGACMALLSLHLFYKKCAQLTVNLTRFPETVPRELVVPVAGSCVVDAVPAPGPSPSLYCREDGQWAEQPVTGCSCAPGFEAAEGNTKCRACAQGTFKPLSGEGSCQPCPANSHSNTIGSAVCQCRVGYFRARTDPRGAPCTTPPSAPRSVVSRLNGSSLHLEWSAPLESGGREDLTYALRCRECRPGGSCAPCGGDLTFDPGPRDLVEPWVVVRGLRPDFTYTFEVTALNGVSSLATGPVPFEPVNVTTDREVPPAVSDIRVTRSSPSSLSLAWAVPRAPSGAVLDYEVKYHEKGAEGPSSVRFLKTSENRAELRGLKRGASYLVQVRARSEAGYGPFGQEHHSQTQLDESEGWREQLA


Legend:
Test in all cases: Selectivity ELISA of humanized antibodies for human Eph receptor
Format in all cases: binding
human EphA1 = target: T1, human EphA1; conditions: coated protein 1 nM
Procedure, shortened: (§1)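 His-tagged SEAP fusions of each human Eph receptor extracellular region, from Expi293F supernatants, were captured at 1 nM on anti-His-coated wells. Humanized antibody was bound 1 h at room temperature, then detected with HRP […] IgG. TMB development was acid-stopped and read at 450 nm.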

human EphA4 = target: T3, human EphA4 (Homo sapiens, UniProt P54764); conditions: coated protein 1 nM; reference set to 100%
T3 construct: made in house; not restated for the human SEAP-His protein
T3 sequence (P54764 20-547): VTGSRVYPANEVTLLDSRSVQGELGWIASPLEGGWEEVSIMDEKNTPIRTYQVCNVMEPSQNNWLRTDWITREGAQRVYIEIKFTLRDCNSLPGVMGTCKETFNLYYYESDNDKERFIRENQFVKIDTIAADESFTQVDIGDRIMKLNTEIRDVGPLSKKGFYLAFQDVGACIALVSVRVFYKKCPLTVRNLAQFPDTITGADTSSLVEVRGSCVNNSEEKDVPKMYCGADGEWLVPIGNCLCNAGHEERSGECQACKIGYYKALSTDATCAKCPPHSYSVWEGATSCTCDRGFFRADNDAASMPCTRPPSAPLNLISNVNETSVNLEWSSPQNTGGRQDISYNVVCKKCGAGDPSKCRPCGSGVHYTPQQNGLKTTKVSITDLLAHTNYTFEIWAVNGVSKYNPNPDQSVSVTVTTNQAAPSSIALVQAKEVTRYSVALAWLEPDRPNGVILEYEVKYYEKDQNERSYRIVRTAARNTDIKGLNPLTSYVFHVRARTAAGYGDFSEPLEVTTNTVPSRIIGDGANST
Procedure, shortened: as §1

human EphB4 = target: T2, human EphB4; conditions: coated protein 1 nM
Procedure, shortened: as §1

| hEphA1-SEAP-: absorbance at 450 nm, percentage with respect to hEphA4-SEAP-His as 100% (human EphA1) | hEphA4-SEAP-: absorbance at 450 nm, percentage with respect to hEphA4-SEAP-His as 100% (human EphA4) | hEphB4-SEAP-: absorbance at 450 nm, percentage with respect to hEphA4-SEAP-His as 100% (human EphB4) | Molecule |
| --- | --- | --- | --- |
| 5.7% | 100% | 5.5% | 69 (antibody, V domains shown, synthetic humanized antibody heavy chain variable region sequence; synthetic humanized antibody light chain variable region sequence) VH: QIQLVQSGSELKKPGASVKVSCKASGYTFTDYSMHWVRQAPGQGLKWMGWINTETGEPTYADDFKGRFVFSLDTSVSTAYLQISSLKAEDTAVYYCARIPLYYYGSRYWYFDVWGQGTTVTVSS VL: DIQMTQSPSSLSASVGDRVTITCRASENIYRNLAWYQQKPGKAPKLLVYAATNLADGVPSRFSGSGSGTDYTLTISSLQPEDFATYYCQHFWGTPWTFGQGTKVEIK |
| 4.4% | 100% | 5.0% | 81 (antibody, V domains shown, constant regions without entry; synthetic humanized antibody light chain variable region sequence; synthetic humanized antibody heavy chain variable region sequence) VL: DIQMTQSPSSLSASVGDRVTITCRASENIYRNLAWYQQKPGKAPKLLLYAATNLADGVPSRFSGSGSGTDYTLTISSLQSEDFATYYCQHFWGTPWTFGQGTKVEIK VH: QVQLVQSGSELKKPGASVKVSCKASGYTFTDYSMHWVRQAPGQGLEWMGWINTETGEPTYAQGFTGRFVFSLDTSVSTAYLQISSLKAEDTAVYYCARIPLYYYGSRYWYFDVWGQGTTVTVSS |
| 5.0% | 100% | 5.2% | 85 (antibody, V domains shown, constant regions without entry; synthetic humanized antibody light chain variable region sequence; synthetic humanized antibody heavy chain variable region sequence) VL: DIQMTQSPSSLSASVGDRVTITCRASENIYRNLAWYQQKPGKAPKLLLYAATNLADGVPSRFSGSGSGTDYTLTISSLQSEDFATYYCQHFWGTPWTFGQGTKVEIK VH: QVQLVQSGSELKKPGASVKVSCKASGYTFTDYSMHWVRQAPGQGLKWMGWINTETGEPTYADDFKGRFVFSLDTSVSTAYLQISSLKAEDTAVYYCARIPLYYYGSRYWYFDVWGQGTTVTVSS |
| 5.3% | 100% | 5.5% | 87 (antibody, V domains shown, constant regions without entry; synthetic humanized antibody light chain variable region sequence; synthetic humanized antibody heavy chain variable region sequence) VL: DIQMTQSPSSLSASVGDRVTITCRASENIYRNLAWYQQKPGKAPQLLLYAATNLADGVPSRFSGSGSGTDYTLTISSLQPEDFATYYCQHFWGTPWTFGQGTKVEIK VH: QVQLVQSGSELKKPGASVKVSCKASGYTFTDYSMHWVRQAPGQGLEWMGWINTETGEPTYAQGFTGRFVFSLDTSVSTAYLQISSLKAEDTAVYYCARIPLYYYGSRYWYFDVWGQGTTVTVSS |
| 5.9% | 100% | 5.8% | 86 (antibody, V domains shown, constant regions without entry; synthetic humanized antibody light chain variable region sequence; synthetic humanized antibody heavy chain variable region sequence) VL: DIQMTQSPSSLSASVGDRVTITCRASENIYRNLAWYQQKPGKAPKLLLYAATNLADGVPSRFSGSGSGTDYTLTISSLQSEDFATYYCQHFWGTPWTFGQGTKVEIK VH: QIQLVQSGSELKKPGASVKVSCKASGYTFTDYSMHWVRQAPGQGLKWMGWINTETGEPTYADDFKGRFVFSLDTSVSTAYLQISSLKAEDTAVYYCARIPLYYYGSRYWYFDVWGQGTTVTVSS |
| 5.7% | 100% | 5.7% | 83 (antibody, V domains shown, constant regions without entry; synthetic humanized antibody light chain variable region sequence; synthetic humanized antibody heavy chain variable region sequence) VL: DIQMTQSPSSLSASVGDRVTITCRASENIYRNLAWYQQKPGKAPKLLLYAATNLADGVPSRFSGSGSGTDYTLTISSLQSEDFATYYCQHFWGTPWTFGQGTKVEIK VH: QIQLVQSGSELKKPGASVKVSCKASGYTFTDYSMHWVRQAPGQGLKWMGWINTETGEPTYAQGFTGRFVFSLDTSVSTAYLQISSLKAEDTAVYYCARIPLYYYGSRYWYFDVWGQGTTVTVSS |
| 5.8% | 100% | 6.1% | 88 (antibody, V domains shown, constant regions without entry; synthetic humanized antibody light chain variable region sequence; synthetic humanized antibody heavy chain variable region sequence) VL: DIQMTQSPSSLSASVGDRVTITCRASENIYRNLAWYQQKPGKAPQLLLYAATNLADGVPSRFSGSGSGTDYTLTISSLQPEDFATYYCQHFWGTPWTFGQGTKVEIK VH: QVQLVQSGSELKKPGASVKVSCKASGYTFTDYSMHWVRQAPGQGLKWMGWINTETGEPTYAQGFTGRFVFSLDTSVSTAYLQISSLKAEDTAVYYCARIPLYYYGSRYWYFDVWGQGTTVTVSS |
| 5.2% | 100% | 5.4% | 84 (antibody, V domains shown, constant regions without entry; synthetic humanized antibody light chain variable region sequence; synthetic humanized antibody heavy chain variable region sequence) VL: DIQMTQSPSSLSASVGDRVTITCRASENIYRNLAWYQQKPGKAPKLLLYAATNLADGVPSRFSGSGSGTDYTLTISSLQSEDFATYYCQHFWGTPWTFGQGTKVEIK VH: QVQLVQSGSELKKPGASVKVSCKASGYTFTDYSMHWVRQAPGQGLEWMGWINTETGEPTYADDFKGRFVFSLDTSVSTAYLQISSLKAEDTAVYYCARIPLYYYGSRYWYFDVWGQGTTVTVSS |
| 5.4% | 100% | 5.7% | 82 (antibody, V domains shown, constant regions without entry; synthetic humanized antibody light chain variable region sequence; synthetic humanized antibody heavy chain variable region sequence) VL: DIQMTQSPSSLSASVGDRVTITCRASENIYRNLAWYQQKPGKAPKLLLYAATNLADGVPSRFSGSGSGTDYTLTISSLQSEDFATYYCQHFWGTPWTFGQGTKVEIK VH: QVQLVQSGSELKKPGASVKVSCKASGYTFTDYSMHWVRQAPGQGLKWMGWINTETGEPTYAQGFTGRFVFSLDTSVSTAYLQISSLKAEDTAVYYCARIPLYYYGSRYWYFDVWGQGTTVTVSS |

Source: patent US10428140B2, “Anti-EphA4 antibody” (EISAI R&D MANAGEMENT CO., LTD., priority 2015, dated 2019)
